The supplement of paper PMC7877785
± gives the uncertainty stated by the source.

Experiment: self-splicing fitness, log relative to wild type (ln ratio); higher = more splicing; Tetrahymena group I intron in knt gene, E. coli kanamycin selection, DiMSum; sequences stand for … in CUCUCU…GGAGGGAAAAGUUAUCAGGCAUGCACCUGGUAGCUAGUCUUUAAACCAAUAGAUUGCAUCGGUUUAAAAGGCAAGACCGUCAAAUUGCGGGAAAGGGGUCAACAGCCGUUCAGUACCAAGUCUCAGGGGAAACUUUGAGAUGGCCUUGCAAAGGGUAUGGUAAUAAGCUGACGGACAUGGUCCUAACCACGCAGCCAAGUCCUAAGUCAACAGAUCUUCUGUUGAUAUGGAUGCAGUUCACAGACUAAAUGUCGGUCGGGGAAGAUGUAUUCUUCUCAUAAGAUAUAGUCGGACCUCUCCUUAAUGGGAGCUAGCGGAUGAAGUGAUGCAACACUGGAGCCGCUGGGAACUAAUUUGUAUGCGAAAGUAUAUUGAUUAGUUUUGGAGUACUCGUGGUCG
In short: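 DiMSum derived fitness as the error-weighted combination of fold changes across replicates, kanamycin versus no kanamycin, normalised to wild type. E. coli BL21(DE3) held the library, which randomised all eight P1ex-region intron nucleotides within the knt kanamycin-resistance gene on pET-22b(+). Six replicate transformations grew overnight at 37°C or 30°C on LB agar with or without 25 μg/mL kanamycin, also containing 100 μg/mL carbenicillin, 50 μM IPTG and 0.2% rhamnose, and pooled colonies were amplicon-sequenced on an Illumina HiSeq 2500.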

| Sequence | self-splicing fitness (ln) (30 °C) | self-splicing fitness (ln) (37 °C) |
| --- | --- | --- |
| CACAAGCAAUAUUACGUCCU | -1.84 ± 0.12 | -1.05 ± 0.15 |
| CACAAGCAAUAUUACGUGUC | -3.86 ± 0.15 | -1.63 ± 0.12 |
| CACAAGCAAUAUUACGUGUU | -3.95 ± 0.12 | -3.28 ± 0.13 |
| CACAAGCAAUAUUACGUUGG | -2.5 ± 0.091 | -1.76 ± 0.099 |
| CACCAGCAAUAUUACGAAUU | -3.18 ± 0.15 | -2.92 ± 0.17 |
| CACCAGCAAUAUUACGACUC | -3.42 ± 0.21 | -1.62 ± 0.18 |
| CACCAGCAAUAUUACGAGAG | -0.95 ± 0.054 | -0.673 ± 0.069 |
| CACCAGCAAUAUUACGAUGG | -1.58 ± 0.06 | -0.874 ± 0.079 |
| CACCAGCAAUAUUACGCAUC | -2.88 ± 0.13 | -3.35 ± 0.23 |
| CACCAGCAAUAUUACGCGAA | -4.18 ± 0.21 | -2.04 ± 0.12 |
| CACCAGCAAUAUUACGCGAG | -0.893 ± 0.057 | -0.594 ± 0.063 |
| CACCAGCAAUAUUACGCGCA | -2.03 ± 0.084 | -1.51 ± 0.085 |
| CACCAGCAAUAUUACGCUAG | -1.49 ± 0.068 | -0.153 ± 0.079 |
| CACCAGCAAUAUUACGGAAC | -4.01 ± 0.17 | -2.06 ± 0.14 |
| CACCAGCAAUAUUACGGGCU | -4.86 ± 0.2 | -2.8 ± 0.16 |
| CACCAGCAAUAUUACGGUGA | -2.61 ± 0.095 | -3.26 ± 0.15 |
| CACCAGCAAUAUUACGGUGC | -3.89 ± 0.21 | -1.81 ± 0.15 |
| CACCAGCAAUAUUACGUAGG | -0.739 ± 0.05 | -0.0785 ± 0.074 |
| CACCAGCAAUAUUACGUCUU | -3.59 ± 0.12 | -2.64 ± 0.15 |
| CACCAGCAAUAUUACGUGGC | -3.65 ± 0.17 | -2.98 ± 0.21 |
| CACCAGCAAUAUUACGUGGG | -3.41 ± 0.095 | -3.03 ± 0.12 |
| CACGAGCAAUAUUACGAAAA | -2.14 ± 0.17 | -2.66 ± 0.25 |

| Sequence | self-splicing fitness (ln) (30 °C) | self-splicing fitness (ln) (37 °C) |
| --- | --- | --- |
| CACGAGCAAUAUUACGAAAU | -2.18 ± 0.19 | -2.81 ± 0.29 |
| CACGAGCAAUAUUACGAAUG | -2.66 ± 0.11 | -2.17 ± 0.16 |
| CACGAGCAAUAUUACGACAG | -1.71 ± 0.078 | -0.496 ± 0.095 |
| CACGAGCAAUAUUACGAGAG | -3.14 ± 0.15 | -2.18 ± 0.18 |
| CACGAGCAAUAUUACGCAAU | -4.23 ± 0.19 | -2.99 ± 0.16 |
| CACGAGCAAUAUUACGCCAU | -2.82 ± 0.27 | -2.55 ± 0.33 |
| CACGAGCAAUAUUACGCUAG | – | -2.4 ± 0.28 |
| CACGAGCAAUAUUACGCUCA | -2.85 ± 0.45 | -2.42 ± 0.27 |
| CACGAGCAAUAUUACGGAAG | -3.54 ± 0.21 | -2.32 ± 0.2 |
| CACGAGCAAUAUUACGGAGC | -2.87 ± 0.44 | -0.87 ± 0.19 |
| CACGAGCAAUAUUACGGAGG | -4.5 ± 0.36 | -2.75 ± 0.28 |
| CACGAGCAAUAUUACGGAGU | -4.82 ± 0.32 | -3.69 ± 0.24 |
| CACGAGCAAUAUUACGGAUG | -3.35 ± 0.16 | -2.47 ± 0.16 |
| CACGAGCAAUAUUACGGCAU | -3.23 ± 0.2 | -3.52 ± 0.33 |
| CACGAGCAAUAUUACGGUUU | -3.79 ± 0.33 | -2.93 ± 0.36 |
| CACGAGCAAUAUUACGUACU | -2.77 ± 0.16 | -2.54 ± 0.27 |
| CACGAGCAAUAUUACGUGCC | – | -3.4 ± 0.28 |
| CACGAGCAAUAUUACGUUAA | -3.25 ± 0.22 | -2.86 ± 0.22 |
| CACUAGCAAUAUUACGAAAU | – | -1.38 ± 0.4 |
| CACUAGCAAUAUUACGAAUU | -2.88 ± 0.19 | -2.77 ± 0.23 |
| CACUAGCAAUAUUACGACGA | -2.06 ± 0.16 | -1.16 ± 0.17 |
